Target: NS1 of rgPR8-NS1-WT virus (Influenza A virus A/Puerto …, UniProt P03496)
Experiment: Western blot
Details: one partner purified

Chain of NS1 of rgPR8-NS1-WT virus (P03496 whole entry): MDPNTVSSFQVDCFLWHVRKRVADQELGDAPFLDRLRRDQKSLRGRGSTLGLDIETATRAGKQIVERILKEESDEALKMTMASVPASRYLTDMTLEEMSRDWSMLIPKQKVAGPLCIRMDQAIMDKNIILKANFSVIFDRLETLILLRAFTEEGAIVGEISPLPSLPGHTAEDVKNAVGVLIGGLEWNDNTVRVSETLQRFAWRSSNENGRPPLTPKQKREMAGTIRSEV

B1: monoclonal antibody 2H6 (antibody, V domains shown)
VH: DVKLVESGGGLVNLGGSLKLSCAASGFTFSRYYMSWVRQTPEKRLELVAAINHNSGRTYYSDTVKGRFTISRDNAKNTLYLQMSSLKSEDTALYYCTRHPLIYHGNYLDYWGQGTTLTVSS
VL: DIVLTQSPASLAVSLGQRATISCKASQSVDYDGDSYVTWYQQKPGQPPKLLIYVASNLESGIPARFSGSGSGTDFTLNIHPVEEEDAATYYCQQSNEDPWTFGGGTKLEIK
  binding result: binds

Source: PMC5025888 (Scientific Reports, 2016)
